Patent publication US20250163176A1, “MONOCLONAL ANTIBODY AGAINST TROP2 AND USE THEREOF” (INSTITUTE OF MEDICAL BIOTECHNOLOGY, CHINESE ACADEMY OF …, priority 2022, published 2025)
One block for each molecule: values may come before it.

Columns and labels:
[1] = test system: recurrent and refractory triple-negative breast cancer; settings: patients; cited from earlier work
small cell lung cancer = settings: patients, phase II; cited from earlier work
[2] = test system: tumor cell membrane that highly expresses Trop2 antigen; assay: binding ability of antibody to tumor cells by flow cytometry; assay type: cell-based; settings: FIG. 10
Protocol: BXPC-3, MDA-MB-231, and NIH 3T3 cells were separately collected at 5×10^6 cells/EP tube, washed with 100 μL of PBS containing 2% FBS pre-cooled to 4° C., and resuspended in 100 μL of PBS containing 2% FBS. Anti-Trop2 antibody at concentrations of 3, 1, 0.3, 0.1, 0.03, 0.01, and 0.003 μg/mL was separately added at 100 μL/tube, with SP2/0 ascite as a negative control. The cells were incubated at 4° C. for 1.5 h, washed with PBS containing 2% FBS, and added with 200 μL of fluorescein isothiocyanate (FITC)-labeled goat anti-mouse IgG secondary antibody (diluted 1:200) for incubation at 4° C. for 1 h in the dark. The cells were washed three times with PBS, and detected by flow cytometry. (FIG. 10)

[3] = test system: Trop2-positive cells HCC-827; assay: confocal immunofluorescence, endocytosis of antibody; assay type: cell-based, human; settings: HCC-827, confocal microscopy, FIG. 9
Protocol: HCC-827 cells in logarithmic growth phase were prepared into a single-cell suspension, after cell counting, which was inoculated into a cell slide at 1×10^4 cells/well/200 μL, and then incubated at 37° C. for 24 h. An anti-Trop2 antibody at 10 μg/mL, 200 μL/well, was added. For the binding of antibody to the cell surface, cells were incubated after being added with antibody IMB1636 at 4° C. for 30 min. The cells were collected for washing three times with PBS, fixed with 4% paraformaldehyde (200 μL/well) for 15 min, washed three times with PBST, permeabilized with 0.2% Triton-X100 (200 μL+100 mL PBS) for 10 min, washed three times with PBST, blocked with 5% BSA at 37° C. for 30 min. The cells were added with secondary antibody (goat anti-mouse AF488) at 3 μL+1.5 mL PBST, 200 μL/well, and incubated at 37° C. for 30 min, washed five times with PBST, stained with DAPI for 15 min, washed three times with PBST, and dropwise added with an anti-fluorescence quenching agent for observation under a confocal microscope.
For the case of endocytosis of antibody, cells were added with antibody IMB1636 and incubated at 37° C. for 2 h. […] Other steps were the same as above. Co-localization of antibody IMB1636 with lysosomes was observed. (FIG. 9)

BxPC-3 = assay: binding ability of antibody to tumor cells by immunofluorescence; assay type: cell-based; settings: BxPC-3 highly expressing Trop2, immunofluorescence, FIG. 8
Protocol: NIH3T3, MDA-MB-231, and BXPC-3 cells were cultured on cell slides at 1×10^4 cells/well and incubated at 37° C. for 24 h. The cells after incubation were fixed with 4% paraformaldehyde for 30 min, followed by washing three times with pre-cooled PBS at 4° C., blocking with 1% BSA in PBST solution at 4° C. overnight, and adding with purified anti-Trop2 antibody at a concentration of 10 μg/mL and incubating at 4° C. overnight. An SP2/0 ascites served as a negative control. The cells were washed three times with PBST pre-cooled to 4° C., added with rhodamine-labeled goat anti-mouse IgG secondary antibody diluted 1:200 at room temperature for incubation for 1.5 h in the dark. The cells after incubation were washed three times with PBST, and one drop of 4′,6-diamidino-2-phenylindole (DAPI) (1 mg/mL) was added to each well for incubation for 10 min. Observations and photographs were taken under a fluorescence microscope. (FIG. 8)

Trop2 = biological target: T1, Trop2 (Homo sapiens, UniProt P09758); assay: antibody titer detected by indirect ELISA; assay type: binding; settings: FIG. 2
T1 sequence (P09758 27-323): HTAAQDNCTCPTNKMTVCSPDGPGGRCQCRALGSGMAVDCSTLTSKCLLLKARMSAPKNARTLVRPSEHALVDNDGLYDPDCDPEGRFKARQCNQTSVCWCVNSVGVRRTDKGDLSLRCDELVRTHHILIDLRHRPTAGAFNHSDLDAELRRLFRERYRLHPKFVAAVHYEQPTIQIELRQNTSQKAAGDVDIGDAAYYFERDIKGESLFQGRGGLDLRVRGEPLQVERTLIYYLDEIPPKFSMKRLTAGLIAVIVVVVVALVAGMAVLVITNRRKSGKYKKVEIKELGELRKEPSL
Description: Hybridoma cell lines for detection was continuously cultured before and after cryopreservation. The antibody titer in the cell supernatant was detected by indirect ELISA.

tumor tissues = assay type: in vivo, mice
Protocol: BXPC-3, MDA-MB-231, and NIH3T3 cells were inoculated in the axilla of mice at 6×10^4 cells/mouse. When the tumor volume reached […], an anti-Trop2 antibody was labeled using a Dylight 680 antibody kit. The anti-Trop2 antibody was injected via tail vein into mice at 20 mg/kg. In vivo imaging was performed at 30 min, 1 h, 2 h, 3 h, 4 h, 6 h, 8 h, 10 h, 12 h, 14 h, 24 h, 30 h, 36 h, 48 h, 60 h, 72 h, 84 h, 96 h, 108 h, 120 h, 132 h, 144 h, 156 h, 168 h, 192 h, 216 h, 240 h, and 264 h. (FIG. 11)

Trop2 antigen [4] = biological target: T2, Trop2 antigen (Homo sapiens, UniProt P09758); assay: antibody-antigen affinity analysis by Biacore method; assay type: binding; settings: antibody coupled to CM5 chip, FIG. 6
T2 sequence (P09758 27-323): T1 sequence (P09758 27-323)
Protocol: Amino of an anti-Trop2 antibody was coupled to a CM5 chip, with pH of 5.0, an antibody concentration of 10 μg/mL, sample injection time of 60 s, and flow rate of 10 μL/min, and a coupling amount of 378.6 RU. Trop2 antigen at different concentrations (0, 0.814, 1.628, 3.256, 6.512, 13.025, 26.05, and 52.1 μg/mL) was taken for flowing over the chip with a sample injection time of 60 s, flow rate of 30 μL/min, dissociation time of 600 s, and regeneration conditions of glycine-HCl, and pH 1.5 (100 s, 30 μL/min) to obtain Biacore affinity graphs and affinity constant. (FIG. 6)

[5] = test system: human lung squamous cell carcinoma tumor tissues; assay: human tumor tissue chip detection; assay type: binding; settings: FIG. 12
Protocol: All tumor tissue chips used in this experiment were purchased from Shanghai Outdo Biotech Co., Ltd. The main experimental steps included: slide baking, dewaxing, antigen retrieval, endogenous peroxidase blocking, primary antibody incubation, secondary antibody incubation, diaminobenzidine (DAB) developing, hematoxylin counterstaining, and slide blocking. (FIG. 12)

Trop2 antigen [6] = biological target: T2, Trop2 antigen; assay: antibody-antigen affinity constant by ELISA; assay type: binding; settings: indirect ELISA, FIG. 7
Protocol: (§1) A Trop2 antigen was diluted to three dilutions (0.1 μg/mL, 0.2 μg/mL, and 0.4 μg/mL) and coated onto ELISA plates. An anti-Trop2 monoclonal antibody was diluted to concentrations of (1, 0.2, 0.04, 0.008, 0.0016, 0.00032, 0.000064, and 0.0000128 μg/mL). An antigen-antibody reaction curve was determined using an indirect ELISA. […] The unit of Ka is M^−1. In this formula, [Ab] represents the antibody concentration corresponding to A=½Amax when the antigen concentration is [Ag]; [Ab]t represents the antibody concentration corresponding to A=½Amax when the antigen concentration is [Ag]t; [Ag] and [Ag]t represent the antigen concentrations; and n is the dilution factor between [Ag] and [Ag]t. (FIG. 7)

Trop2 antigen [7] = biological target: T3, Trop2 antigen (human, UniProt P09758 27-274, limits assumed); assay: indirect ELISA, Trop2 antigen coated at 0.4 µg/ml
T3 construct: also called human trophoblast cell surface antigen 2; tumor-associated calcium signal transducer 2
T3 sequence (looked up): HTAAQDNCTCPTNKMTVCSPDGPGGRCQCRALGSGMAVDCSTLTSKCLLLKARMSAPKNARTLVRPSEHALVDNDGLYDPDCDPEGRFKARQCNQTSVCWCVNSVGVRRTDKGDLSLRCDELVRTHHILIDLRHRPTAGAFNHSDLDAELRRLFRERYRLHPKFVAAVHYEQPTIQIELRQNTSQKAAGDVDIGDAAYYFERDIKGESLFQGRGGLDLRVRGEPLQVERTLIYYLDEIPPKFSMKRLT
Protocol: as §1, with “An anti-Trop2 monoclonal antibody was diluted to concentrations of (1, 0.2, 0.04, 0.008, 0.0016, 0.00032, 0.000064, and 0.0000128 μg/mL).” left out, “M⁻¹.” for “M^−1.”

Trop2 antigen [8] = biological target: T3, Trop2 antigen; assay: indirect ELISA on plates coated with Trop2 antigen at 0.1, 0.2 and 0.4 µg/mL; Ka calculated from the antibody concentrations at half-maximal binding
Protocol: as §1, with “An anti-Trop2 monoclonal antibody was diluted to concentrations of (1, 0.2, 0.04, 0.008, 0.0016, 0.00032, 0.000064, and 0.0000128 μg/mL).” left out, “M⁻¹.” for “M^−1.”

Trop2 antigen [9] = biological target: T3, Trop2 antigen; assay: indirect ELISA, Trop2 antigen coated at 0.2 µg/ml
Protocol: as §1, with “An anti-Trop2 monoclonal antibody was diluted to concentrations of (1, 0.2, 0.04, 0.008, 0.0016, 0.00032, 0.000064, and 0.0000128 μg/mL).” left out, “M⁻¹.” for “M^−1.”

Trop2 antigen [10] = biological target: T3, Trop2 antigen; assay: Biacore SPR; antibody amine-coupled to CM5 chip, Trop2 antigen as analyte
Protocol: Amino of an anti-Trop2 antibody was coupled to a CM5 chip, with pH of 5.0, an antibody concentration of 10 μg/mL, sample injection time of 60 s, and flow rate of 10 μL/min, and a coupling amount of 378.6 RU. […] (FIG. 6)

Trop2 antigen [11] = biological target: T3, Trop2 antigen; assay: indirect ELISA, Trop2 antigen coated at 0.1 µg/ml
Protocol: as §1, with “An anti-Trop2 monoclonal antibody was diluted to concentrations of (1, 0.2, 0.04, 0.008, 0.0016, 0.00032, 0.000064, and 0.0000128 μg/mL).” left out, “M⁻¹.” for “M^−1.”

Molecule: IMMU-132
average time from administration to taking effect [1]: 1.9 months
clinical effective rate [1]: 46%
objective remission rate [1]: 30%
overall survival time [1]: 16.6 months
progression-free survival time [1]: 6 months
clinical effective rate (small cell lung cancer): 43%
median overall survival time (small cell lung cancer): 9.5 months
median progression-free survival time (small cell lung cancer): 5.2 months
median remission time (small cell lung cancer): 6 months
objective remission rate (small cell lung cancer): 19%

titer of antibody (Trop2): 8000000
ka (Trop2 antigen [4]): 1.057e+06 M⁻¹ s⁻¹
kd (Trop2 antigen [4]): 0.0007297 s⁻¹
affinity constant Ka (Trop2 antigen [6]): 3.9e+10 M⁻¹
B1: antibody: mouse-derived anti-Trop2 monoclonal antibody (IgG1, Kappa) from hybridoma Y1636-1, CGMCC No. 18167; VL SEQ ID NO:1, VH SEQ ID NO:9 (antibody, V domains shown)
VH: MEWSGVFIFLLSVTADVHSQVQLQQSGAELVRPGTSVKISCKASGYTFTNYWLGWVKQRPGHGLEWIGNIFPGGGYTNYNEKFKGKAILTADTSSSTAYMQLSSLTSEDSGVYFCAREGVMDYWGQGTTLTVSS
VL: MVSTPQFLVFLLFWIPASRGDILLTQSPAILSVSPGERVSFSCRASQNIGTSIHWYQQRTNGFPRLLIKYASESISGIPSRFSGSGSGTDFTLSINSVESEDIADYYCQQSYSWPFTFGSGTKLEIK
modifications: mouse IgG1/kappa constant regions, no entry
affinity activity with tumor cell membrane [2]: high affinity activity
endocytosis of the antibody [3]: efficiently endocytose
membrane-binding activity with tumor cell membrane (BxPC-3): high membrane-binding activity
targeting of tumor tissues in vivo (tumor tissues; mice, in vivo imaging, FIG. 11): highly target tumor tissues
time remaining in the tumor tissue (tumor tissues; mouse, in vivo): over 11 days
binding to human tumor tissue [5]: highly and specifically bind

EC50 (read off the curve) (Trop2 antigen [7]): ~5 ng/mL
Ka (Trop2 antigen [8]): 3.9e+10 M⁻¹
EC50 (read off the curve) (Trop2 antigen [9]): ~5 ng/mL
Kd (Trop2 antigen [10]): 0.484 nM
koff (Trop2 antigen [10]): 0.00073 s⁻¹
kon (Trop2 antigen [10]): 1.51e+06 M⁻¹ s⁻¹
EC50 (read off the curve) (Trop2 antigen [11]): ~5 ng/mL
B2: anti-Trop2 monoclonal antibody IMB1636 (antibody, V domains shown)
VH: QVQLQQSGAELVRPGTSVKISCKASGYTFTNYWLGWVKQRPGHGLEWIGNIFPGGGYTNYNEKFKGKAILTADTSSSTAYMQLSSLTSEDSGVYFCAREGVMDYWGQGTTLTVSS
VL: DILLTQSPAILSVSPGERVSFSCRASQNIGTSIHWYQQRTNGFPRLLIKYASESISGIPSRFSGSGSGTDFTLSINSVESEDIADYYCQQSYSWPFTFGSGTKLEIK
notes: also called mouse-derived anti-Trop2 monoclonal antibody; anti-Trop2 antibody
